# Measured values: patent US20140329289, “ANTI-FH APTAMERS, METHOD FOR PRODUCING SAME, AND USES THEREOF” (Laboratoire Francais du Fractionnement et des …, published 2014)
# Experiments:
# [1] = target: T1, Factor H (complement factor H), plasma (Homo sapiens, UniProt P08603 P08603:19-1231); experiment: SPR; rank 3 of 5 truncations; 50 mM NaCl, 50 mM MgCl2, pH 7.5; details: tags: LFB preparation (Biacore, amine-coupled NHS/EDC on CM5 chip, 5813 RU); Calbiochem 341274 also used in SELEX
# [2] = target: T1, Factor H (complement factor H), plasma; experiment: SPR; binding stability; 10 mM MgCl2, pH 7.5; details: tags: LFB preparation (Biacore, amine-coupled NHS/EDC on CM5 chip, 5813 RU); Calbiochem 341274 also used in SELEX
# [3] = target: T1, Factor H (complement factor H), plasma; experiment: SPR; rank 2 of 5 truncations; 50 mM NaCl, 50 mM MgCl2, pH 7.5; details: tags: LFB preparation (Biacore, amine-coupled NHS/EDC on CM5 chip, 5813 RU); Calbiochem 341274 also used in SELEX
# [4] = target: T1, Factor H (complement factor H), plasma; experiment: pulldown; affinity chromatography on aptamer-agarose; 74% of A254 retained and eluted with EDTA; 50 mM MgCl2, 50 mM NaCl, pH 7.5; details: tags: LFB preparation (Biacore, amine-coupled NHS/EDC on CM5 chip, 5813 RU); Calbiochem 341274 also used in SELEX; label: biotin
# Protocol: The plasma factor H is eluted with a 50 mM Tris+500 mM EDTA buffer at pH 8.0. The elution peak is collected according to the OD profile.
# [5] = target: T1, Factor H (complement factor H), plasma; experiment: SPR; rank 4 of 5 truncations; 50 mM NaCl, 50 mM MgCl2, pH 7.5; details: tags: LFB preparation (Biacore, amine-coupled NHS/EDC on CM5 chip, 5813 RU); Calbiochem 341274 also used in SELEX
# [6] = target: T1, Factor H (complement factor H), plasma; experiment: SPR; strongest of the five truncations; 50 mM Tris, 50 mM NaCl, 50 mM MgCl2, pH 7.5; p444 calls the FH recombinant, methods say LFB FH; details: tags: LFB preparation (Biacore, amine-coupled NHS/EDC on CM5 chip, 5813 RU); Calbiochem 341274 also used in SELEX
# T1 sequence (P08603 19-1231, one chain of several): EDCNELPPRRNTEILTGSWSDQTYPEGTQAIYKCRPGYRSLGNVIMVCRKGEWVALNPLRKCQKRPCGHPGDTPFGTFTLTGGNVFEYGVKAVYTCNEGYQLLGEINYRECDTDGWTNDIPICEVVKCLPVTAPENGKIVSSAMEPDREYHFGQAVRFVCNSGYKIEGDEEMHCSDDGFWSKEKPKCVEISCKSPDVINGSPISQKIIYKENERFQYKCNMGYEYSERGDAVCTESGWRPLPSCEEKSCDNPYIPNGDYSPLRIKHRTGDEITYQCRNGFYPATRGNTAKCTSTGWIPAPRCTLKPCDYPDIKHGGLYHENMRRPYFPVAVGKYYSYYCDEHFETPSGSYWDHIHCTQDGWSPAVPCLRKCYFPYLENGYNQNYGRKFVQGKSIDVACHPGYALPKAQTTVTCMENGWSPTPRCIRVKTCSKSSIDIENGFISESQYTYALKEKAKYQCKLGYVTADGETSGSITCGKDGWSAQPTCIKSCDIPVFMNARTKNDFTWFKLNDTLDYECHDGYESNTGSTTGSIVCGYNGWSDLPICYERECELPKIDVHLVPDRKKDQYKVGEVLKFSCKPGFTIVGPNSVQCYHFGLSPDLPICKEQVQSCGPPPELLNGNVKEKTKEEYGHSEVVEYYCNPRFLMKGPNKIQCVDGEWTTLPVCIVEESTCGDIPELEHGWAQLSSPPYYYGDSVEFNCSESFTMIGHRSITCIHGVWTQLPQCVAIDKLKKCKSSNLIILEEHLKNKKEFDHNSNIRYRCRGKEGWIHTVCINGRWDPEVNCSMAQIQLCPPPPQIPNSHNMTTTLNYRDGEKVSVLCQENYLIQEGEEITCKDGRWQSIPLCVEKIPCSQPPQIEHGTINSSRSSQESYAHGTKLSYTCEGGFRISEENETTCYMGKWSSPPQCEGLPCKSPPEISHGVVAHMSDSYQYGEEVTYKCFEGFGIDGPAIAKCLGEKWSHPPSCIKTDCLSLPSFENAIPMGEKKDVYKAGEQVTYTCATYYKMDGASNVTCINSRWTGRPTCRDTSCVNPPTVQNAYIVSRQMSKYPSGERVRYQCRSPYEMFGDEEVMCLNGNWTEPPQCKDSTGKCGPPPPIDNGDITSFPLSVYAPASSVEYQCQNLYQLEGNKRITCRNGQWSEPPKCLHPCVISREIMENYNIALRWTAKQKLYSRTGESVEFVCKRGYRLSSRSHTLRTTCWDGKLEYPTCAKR
Binder,binding signal [2],further results
GGGCACGGGTCAGGCGGTTATACGGTGCCCATTGT (ssDNA) [MaptH1.1 N19-53],–,binding result [1]: binds
FAM1-12 (ssDNA) DNA: GGGTCAATGCCAGGTCTCACCGGGTCAGGCGGTTATACGGGTGAGGGCAGGTACATACATCGGCTCGCAAGCAGTC,18.2 RU,–
FAM1-13 (ssDNA) DNA: GGGTCAATGCCAGGTCTCACCGGGTCAGGCGGTTATACGGGTGGGGGCAGGTACATACATCGGCTCGCAAGCAGTC,30.6 RU,–
FAM2-2 (ssDNA) DNA: GGGTCAATGCCAGGTCTCCCGGTTACTGCCGTAGTTGTCTTACGGTGGTGTTAGTGGCATCGGCTCGCAAGCAGTC,22.4 RU,–
FAM1-7 (ssDNA) DNA: GGGTCAATGCCAGGTCTCGGGGGGCCGGTTATACGGGTCAGGCGGTTATACGGTATTCATCGGCTCGCAAGCAGTC,15.4 RU,–
FAM1-8 (ssDNA) DNA: GGGTCAATGCCAGGTCTCAATCAGAAGGGTCTGGTGGTTATACGTTCATGTATTGGGTATCGGCTCGCAAGCAGTC,36 RU,–
GGGCACGGGTCAGGCGGTTATACGGTGCCCATTGTTCTTT (ssDNA) [MaptH1.1 N19-58],–,binding result [3]: binds
FAM2-5 (ssDNA) DNA: GGGTCAATGCCAGGTCTCCCGGTTACCAACTATGATAGTATGGTGTTTGTGGCATGATCGGCTCGCAAGCAGTC,22.2 RU,–
FAM1-11 (ssDNA) DNA: GGGTCAATGCCAGGTCTCGGGGCAGGCGGTTATACGGAGAGCTTCTTACATGGGCCCTATCGGCTCGCAAGCAGTC,16.9 RU,–
FAM4 (ssDNA) DNA: GGGTCAATGCCAGGTCTCCAAAGGGGGGGGTTGGGGGACCGTCCGTTGTTGATCTCACATCGGCTCGCAAGCAGTC,25.9 RU,–
MaptH1.1 (ssDNA) DNA: GGGTCAATGCCAGGTCTCGGGCACGGGTCAGGCGGTTATACGGTGCCCATTGTTCTTTATCGGCTCGCAAGCAGTC,–,binding result [4]: binds
FAM2-7 (ssDNA) DNA: GGGTCAATGCCAGGTCTCCCGGTTACCAAGATCGTTGTTCTTGGTGTTAGTGGCATTCATCGGCTCGCAAGCAGTC,22.1 RU,–
FAM1-10 (ssDNA) DNA: GGGTCAATGCCAGGTCTCTGGGGGAGGGAGGGTCTGGGGGTTATACGTCACTAGCAAAATCGGCTCGCAAGCAGTC,73.5 RU,–
IND1 (ssDNA) DNA: GGGTCAATGCCAGGTCTCGGTGGGAGGTGAGGTCGTTGGACGGTGGCAGGGGATTTTGATCGGCTCGCAAGCAGTC,20.1 RU,–
FAM2-4 (ssDNA) DNA: GGGTCAATGCCAGGTCTCCCGGTTACCAGTTGGTGTTTGTGGCTTTGCACGTCTGCATATCGGCTCGCAAGCAGTC,27.6 RU,–
FAM1-9 (ssDNA) DNA: GGGTCAATGCCAGGTCTCGGGGTGCGAGGGTCTGGTGGTTATACGTCGTCACCTCTAGATCGGCTCGCAAGCAGTC,57.8 RU,–
FAM2-3 (ssDNA) DNA: GGGTCAATGCCAGGTCTCCCGGTTACCTCCATTGGTGGTGTTAGTGGCTTTGTAGGATATCGGCTCGCAAGCAGTC,18.2 RU,–
FAM1-3 (ssDNA) DNA: GGGTCAATGCCAGGTCTCGGACCGCGATGGAGAGGGGTCTGGTGGTTATACGCTATGCATCGGCTCGCAAGCAGTC,20.9 RU,–
FAM1-4 (ssDNA) DNA: GGGTCAATGCCAGGTCTCGGGCCGCGATGGAGAGGGGTCTGGTGGTTATACGCTATGCATCGGCTCGCAAGCAGTC,26.2 RU,–
GGGCACGGGTCAGGCGGTTATACGGTGCCC (ssDNA) [MaptH1.1 N19-48],–,binding result [5]: binds
FAM1-5 (ssDNA) DNA: GGGTCAATGCCAGGTCTCGCAGAGGTGCGAGGGGCGGTGGGGTCTGGTGGTTATACGCATCGGCTCGCAAGCAGTC,21.2 RU,–
CAGGTCTCGGGCACGGGTCAGGCGGTTATACGGTGCCC (ssDNA) [MaptH1.1 N13-48 (MaptH1.1CSO)],–,binding result [6]: binds
FAM2-1 (ssDNA) DNA: GGGTCAATGCCAGGTCTCCCGGTTACCGCGCTAAGCTTGGCGATGGTGTTAGTGGCTGATCGGCTCGCAAGCAGTC,29.6 RU,–
FAM3 (ssDNA) DNA: GGGTCAATGCCAGGTCTCTGAGGCGCAGATGTGGAGGCTTTTACAGGCGGTGCGGAACATCGGCTCGCAAGCAGTC,11.7 RU,–
FAM2-6 (ssDNA) DNA: GGGTCAATGCCAGGTCTCCCGGTTACCATCGAGGACGTCGCTTGGTGTTTGTGGCATGATCGGCTCGCAAGCAGTC,22.1 RU,–
FAM1-6 (ssDNA) DNA: GGGTCAATGCCAGGTCTCGAGGAACGTGGGGTCAGGTGGTTATACGCAGGGTACCGGGATCGGCTCGCAAGCAGTC,30 RU,–
